Tests used:
Assay in all cases: fluorescence polarization
hBrr2T1 = hBrr2T1 (human, UniProt O75643 395-2129)
hBrr2T1-SS-linear = hBrr2T1-SS-linear (human, UniProt O75643 395-2129, M641C;A1582C)
hBrr2T1-SS-rot+ = hBrr2T1-SS-rot+ (human, UniProt O75643 395-2129, D534C;N1866C)

Measured: binding result

hBrr2T1-SS-rot+, sequence (O75643 395-2129 D534C/N1866C): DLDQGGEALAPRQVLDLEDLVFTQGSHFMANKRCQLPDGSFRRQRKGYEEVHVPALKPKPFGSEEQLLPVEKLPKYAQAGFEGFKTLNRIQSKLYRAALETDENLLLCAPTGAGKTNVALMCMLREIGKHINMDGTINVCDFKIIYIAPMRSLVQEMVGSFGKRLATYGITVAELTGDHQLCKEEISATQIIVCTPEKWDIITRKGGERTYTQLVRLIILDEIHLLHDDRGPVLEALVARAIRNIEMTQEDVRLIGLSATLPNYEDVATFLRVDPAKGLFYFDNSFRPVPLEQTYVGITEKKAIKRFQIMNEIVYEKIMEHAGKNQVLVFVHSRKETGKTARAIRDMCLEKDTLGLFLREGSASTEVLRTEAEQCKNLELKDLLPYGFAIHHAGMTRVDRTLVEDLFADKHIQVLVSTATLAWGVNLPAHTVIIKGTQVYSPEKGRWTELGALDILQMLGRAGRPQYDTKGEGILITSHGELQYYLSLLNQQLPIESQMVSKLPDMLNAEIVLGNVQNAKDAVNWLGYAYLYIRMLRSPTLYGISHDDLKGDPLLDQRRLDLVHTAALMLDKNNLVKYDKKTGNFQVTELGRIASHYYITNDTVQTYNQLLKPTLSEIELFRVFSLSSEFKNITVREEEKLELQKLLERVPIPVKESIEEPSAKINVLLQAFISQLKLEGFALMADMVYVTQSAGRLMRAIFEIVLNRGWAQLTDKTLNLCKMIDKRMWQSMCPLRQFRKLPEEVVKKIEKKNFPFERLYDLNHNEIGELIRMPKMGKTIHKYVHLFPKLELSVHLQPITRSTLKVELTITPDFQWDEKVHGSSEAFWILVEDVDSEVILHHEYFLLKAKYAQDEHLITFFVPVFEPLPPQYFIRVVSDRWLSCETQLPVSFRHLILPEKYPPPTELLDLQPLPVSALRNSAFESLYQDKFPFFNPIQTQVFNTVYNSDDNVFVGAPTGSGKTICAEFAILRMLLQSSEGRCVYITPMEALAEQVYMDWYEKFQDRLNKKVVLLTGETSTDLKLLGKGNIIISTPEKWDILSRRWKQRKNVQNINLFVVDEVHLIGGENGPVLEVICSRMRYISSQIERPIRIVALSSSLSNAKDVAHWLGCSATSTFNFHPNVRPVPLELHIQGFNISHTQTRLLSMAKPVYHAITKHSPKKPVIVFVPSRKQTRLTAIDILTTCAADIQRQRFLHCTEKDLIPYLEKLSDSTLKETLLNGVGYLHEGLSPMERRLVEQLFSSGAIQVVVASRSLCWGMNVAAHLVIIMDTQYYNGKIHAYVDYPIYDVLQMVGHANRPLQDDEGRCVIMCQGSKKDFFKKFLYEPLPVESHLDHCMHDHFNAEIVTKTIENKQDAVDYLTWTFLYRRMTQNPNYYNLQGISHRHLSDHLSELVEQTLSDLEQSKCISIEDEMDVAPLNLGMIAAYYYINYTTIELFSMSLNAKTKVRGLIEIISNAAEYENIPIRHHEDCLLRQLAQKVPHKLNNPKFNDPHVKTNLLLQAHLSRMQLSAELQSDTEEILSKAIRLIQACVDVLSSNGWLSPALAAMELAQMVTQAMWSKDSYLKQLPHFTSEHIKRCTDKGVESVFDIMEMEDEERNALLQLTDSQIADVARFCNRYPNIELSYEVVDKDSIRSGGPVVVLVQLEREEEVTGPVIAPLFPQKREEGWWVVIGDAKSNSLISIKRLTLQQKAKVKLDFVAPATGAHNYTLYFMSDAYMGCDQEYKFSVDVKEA
hBrr2T1-SS-linear, sequence (O75643 395-2129 M641C/A1582C): as the sequence (O75643 395-2129 D534C/N1866C) above, with C140D, M247C, A1188C, C1472N counted along it
hBrr2T1, sequence (O75643 395-2129): as the sequence (O75643 395-2129 D534C/N1866C) above, with C140D, C1472N counted along it

B1: RNA duplex with 3' ss overhang (dsRNA)
RNA 1: CGCGUGCUGGUCGAAAUUUAAUUAUAAACCAGACCGUC
RNA 2: GACCAGCACGCG
binds: all assays above
